Experimental data: paper PMC10284872, “FRET analysis of the temperature-induced structural changes in human TRPV3” (Scientific Reports, 2023)
Substitutions are numbered along the chain they refer to. In names and notes the source's numbering stands.

B1: human TRPV3 single-cysteine construct A131C (cysteine-free background, K169A) (natural protein, UniProt Q8NET8 1-790, looked up)
chain: MKAHPKEMVPLMGKRVAAPSGNPAILPEKRPAEITPTKKSAHFFLEIEGFEPNPTVAKTSPPVFSKPMDSNIRQAISGNADDMDSPQSPQDDVTETPSNPNSPSAQLAKEEQRRKKRRLKKRIFAAVSEGCVEELVELLVELQELARRRHDEDVPDFLMHKLTASDTGATALMKALLNINPNTKEIVRILLAFAEENDILGRFINAEYTEEAYEGQTALNIAIERRQGDIAALLIAAGADVNAHAKGAFFNPKYQHEGFYFGETPLALAAATNQPEIVQLLMEHEQTDITSRDSRGNNILHALVTVAEDFKTQNDFVKRMYDMILLRSGNWELETTRNNDGLTPLQLAAKMGKAEILKYILSREIKEKRLRSLSRKFTDWAYGPVSSSLYDLTNVDTTTDNSVLEITVYNTNIDNRHEMLTLEPLHTLLHMKWKKFAKHMFFLSFLFYFFYNITLTLVSYYRPREEEAIPHPLALTHKMGWLQLLGRMFVLIWAMLISVKEGIAIFLLRPSDLQSILSDAWFHFVFFIQAVLVILSVFLYLFAYKEYLAFLVLAMALGWANMLYYTRGFQSMGMYSVMIQKVILHDVLKFLFVYIVFLLGFGVALASLIEKAPKDNKDASSYGSFSDAVLELFKLTIGLGDLNIQQNSKYPILFLFLLITYVILTFVLLLNMLIALMGETVENVSKESERIWRLQRARTILEFEKMLPEWLRSRFRMGELAKVAEDDFRLALRINEVKWTEWKTHVSFLNEDPGPVRRTDFNKIQDSSRNNSKTTLNAFEEVEEFPETSV
modifications: C131 labelled with sulfo-Cy3 maleimide or sulfo-Cy5 maleimide (1:1 mixture) in the FRET samples
notes: human TRPV3, full length; printed as A131C on the cysteine-free construct, so the native C131 stands again and the other 12 cysteines are replaced; K169A added; Homotetrameric channel in DDM/CHS with lipids; also called hTRPV3 A131C; ARD construct; source: Sf9 cells, baculovirus (Bac-to-Bac), purified (DDM/CHS solubilisation, anti-FLAG resin)
B2: human TRPV3 single-cysteine construct A619C (cysteine-free background, K169A) (natural protein, UniProt Q8NET8 1-790, looked up)
chain: B1 chain with C131A, A619C
modifications: C619 labelled with sulfo-Cy3 maleimide or sulfo-Cy5 maleimide (1:1 mixture) in the FRET samples
notes: human TRPV3, full length; printed as A619C on the cysteine-free construct, so the native C619 stands again and the other 12 cysteines are replaced; K169A added; Homotetrameric channel in DDM/CHS with lipids; also called hTRPV3 A619C; pore turret construct; source: Sf9 cells, baculovirus (Bac-to-Bac), purified (DDM/CHS solubilisation, anti-FLAG resin)
B3: human TRPV3 single-cysteine construct L513C (cysteine-free background, K169A) (natural protein, UniProt Q8NET8 1-790, looked up)
chain: B1 chain with C131A, L513C
modifications: C513 labelled with sulfo-Cy3 maleimide or sulfo-Cy5 maleimide (1:1 mixture) in the FRET samples
notes: human TRPV3, full length; all 13 native cysteines replaced, L513C and K169A added; Homotetrameric channel in DDM/CHS with lipids; also called hTRPV3 L513C; S2-S3 linker construct; source: Sf9 cells, baculovirus (Bac-to-Bac), purified (DDM/CHS solubilisation, anti-FLAG resin)
B4: human TRPV3 single-cysteine construct A721C (cysteine-free background, K169A) (natural protein, UniProt Q8NET8 1-790, looked up)
chain: B1 chain with C131A, A721C
modifications: C721 labelled with sulfo-Cy3 maleimide or sulfo-Cy5 maleimide (1:1 mixture) in the FRET samples
notes: human TRPV3, full length; printed as A721C on the cysteine-free construct, so the native C721 stands again and the other 12 cysteines are replaced; K169A added; Homotetrameric channel in DDM/CHS with lipids; also called hTRPV3 A721C; C-terminal domain construct; source: Sf9 cells, baculovirus (Bac-to-Bac), purified (DDM/CHS solubilisation, anti-FLAG resin)

Target: the molecule itself
Experiment: SEC; fluorescence-detection size-exclusion chromatography (FSEC); heat-treated (42 °C) samples of each construct compared with a heat-untreated sample

Protein	stoichiometry N
B1	4
B2	4
B3	4
B4	4
